Experimental data: article PMC5633918, “The coproporphyrin ferrochelatase of Staphylococcus aureus: mechanistic insights into a regulatory iron-binding site” (Biochemical Journal, 2017)

Substrate: CC1=C(CCC(=O)O)c2cc3nc(cc4[nH]c(cc5[nH]c(cc1n2)c(C)c5CCC(=O)O)c(CCC(=O)O)c4C)C(CCC(=O)O)=C3C
Test: purified protein
Type: biochemical, Staphylococcus aureus
Settings: 0.7 µM Fe2+ (sub-inhibitory), 0.1 M Tris-HCl pH 8.1, 0.5% sodium cholate, 0.5% Tween 20, 1 mM beta-mercaptoethanol, 30 °C

B1: S. aureus CpfC (coproporphyrin ferrochelatase) (Staphylococcus aureus subsp. aureus USA300) (protein)
chain: MTKKMGLLVMAYGTPYKESDIEPYYTDIRHGKRPSEEELQDLKDRYEFIGGLSPLAGTTDDQADALVSALNKAYADVEFKLYLGLKHISPFIEDAVEQMHNDGITEAITVVLAPHYSSFSVGSYDKRADEEAAKYGIQLTHVKHYYEQPKFIEYWTNKVNETLAQIPEEEHKDTVLVVSAHSLPKGLIEKNNDPYPQELEHTALLIKEQSNIEHIAIGWQSEGNTGTPWLGPDVQDLTRDLYEKHQYKNFIYTPVGFVCEHLEVLYDNDYECKVVCDDIGANYYRPKMPNTHPLFIGAIVDEIKSIF
notes: tag removal not mentioned
B1 showed a Km of 1.5 ± 0.2 µM and a kcat of 10.5 ± 0.4 min⁻¹.
